From US20110300138A1 (published 2011)

What was measured:
Assay in all cases: cell-based or functional assay
[1] = target: TSHR with Gln235 mutated to Ala expressed in CHO cells (human) (UniProt P16473)
[2] = target: TSHR with Asp276 mutated to Ala, expressed in CHO cells (human) (UniProt P16473)
[3] = target: wild type TSHR (human) (UniProt P16473)
[4] = target: TSHR with Tyr185 mutated to Ala (human) (UniProt P16473)
[5] = target: TSHR with Lys183 mutated to Ala expressed in CHO cells (human) (UniProt P16473)

Question: Which results are given for TSH (ligand)?
Answer: Cyclic AMP produced, TSH 0.01 ng/mL, Experiment 1 [1]: 1.75 pmol/mL; Cyclic AMP produced, TSH 0.01 ng/mL, Experiment 2 [1]: 3.42 pmol/mL; Cyclic AMP produced, TSH 0.03 ng/mL, Experiment 1 [1]: 2.89 pmol/mL; Cyclic AMP produced, TSH 0.03 ng/mL, Experiment 2 [1]: 4.55 pmol/mL; Cyclic AMP produced, TSH 0.1 ng/mL, Experiment 1 [1]: 5.97 pmol/mL; Cyclic AMP produced, TSH 0.1 ng/mL, Experiment 2 [1]: 7.77 pmol/mL; Cyclic AMP produced, TSH 0.3 ng/mL, Experiment 1 [1]: 17.6 pmol/mL; Cyclic AMP produced, TSH 0.3 ng/mL, Experiment 2 [1]: 17.1 pmol/mL; Cyclic AMP produced, TSH 1 ng/mL, Experiment 1 [1]: 44.2 pmol/mL; Cyclic AMP produced, TSH 1 ng/mL, Experiment 2 [1]: 31.7 pmol/mL; Cyclic AMP produced; TSH 3 ng/mL; Experiment 1 [1]: 46.6 pmol/mL; Cyclic AMP produced; TSH 3 ng/mL; Experiment 2 [1]: 37.1 pmol/mL; Experiment 1: % inhibition of TSH stimulation; TSH (2), run at the end of assay [1]: 13%; Experiment 1: Mutated/wild type (%) of cyclic AMP produced; TSH 3 ng/mL [1]: 70%; Experiment 1: Mutated/wild type (%) of cyclic AMP produced; TSH (2) 3 ng/mL, run at the end of assay [1]: 61%; Experiment 2: % inhibition of TSH stimulation; TSH (2), run at the end of assay [1]: 3%; Experiment 2: Mutated/wild type (%) of cyclic AMP produced; TSH 3 ng/mL [1]: 100%; Experiment 2: Mutated/wild type (%) of cyclic AMP produced; TSH (2) 3 ng/mL, run at the end of assay [1]: 71%; Mutated/Wild type (%) of cyclic AMP produced, TSH 0.01 ng/mL, Experiment 1 [1]: 161%; Mutated/Wild type (%) of cyclic AMP produced, TSH 0.01 ng/mL, Experiment 2 [1]: 177%; Mutated/Wild type (%) of cyclic AMP produced, TSH 0.03 ng/mL, Experiment 1 [1]: 125%; Mutated/Wild type (%) of cyclic AMP produced, TSH 0.03 ng/mL, Experiment 2 [1]: 165%; Mutated/Wild type (%) of cyclic AMP produced, TSH 0.1 ng/mL, Experiment 1 [1]: 91%; Mutated/Wild type (%) of cyclic AMP produced, TSH 0.1 ng/mL, Experiment 2 [1]: 107%; Mutated/Wild type (%) of cyclic AMP produced, TSH 0.3 ng/mL, Experiment 1 [1]: 67%; Mutated/Wild type (%) of cyclic AMP produced, TSH 0.3 ng/mL, Experiment 2 [1]: 68%; Mutated/Wild type (%) of cyclic AMP produced, TSH 1 ng/mL, Experiment 1 [1]: 65%; Mutated/Wild type (%) of cyclic AMP produced, TSH 1 ng/mL, Experiment 2 [1]: 62%; Mutated/wild type (%) of cyclic AMP produced; TSH 3 ng/mL; Experiment 1 [1]: 56%; Mutated/wild type (%) of cyclic AMP produced; TSH 3 ng/mL; Experiment 2 [1]: 53%; Cyclic AMP produced (pmol/mL), TSH 0.01 ng/mL [2]: 14.3 pmol/mL; Cyclic AMP produced (pmol/mL), TSH 0.03 ng/mL [2]: 17.6 pmol/mL; Cyclic AMP produced (pmol/mL), TSH 0.1 ng/mL [2]: 21.7 pmol/mL; Cyclic AMP produced (pmol/mL), TSH 0.3 ng/mL [2]: 45.6 pmol/mL; Cyclic AMP produced (pmol/mL), TSH 1 ng/mL [2]: 68.3 pmol/mL; Cyclic AMP produced (pmol/mL), TSH 3 ng/mL [2]: 76 pmol/mL; Experiment 1; % inhibition of TSH stimulation; TSH (2) 3 ng/mL, run at the end of assay [2]: 6%; Experiment 1; Mutated/wild type (%) of cyclic AMP produced; TSH 3 ng/mL [2]: 91%; Experiment 1; Mutated/wild type (%) of cyclic AMP produced; TSH (2) 3 ng/mL, run at the end of assay [2]: 90%; Experiment 1; cyclic AMP produced; TSH 3 ng/mL [2]: 71.2 pmol/mL; Experiment 1; cyclic AMP produced; TSH (2) 3 ng/mL, run at the end of assay [2]: 67 pmol/mL; Experiment 2; % inhibition of TSH stimulation; TSH (2) 3 ng/mL, run at the end of assay [2]: 18%; Experiment 2; Mutated/wild type (%) of cyclic AMP produced; TSH 3 ng/mL [2]: 78%; Experiment 2; Mutated/wild type (%) of cyclic AMP produced; TSH (2) 3 ng/mL, run at the end of assay [2]: 66%; Experiment 2; cyclic AMP produced; TSH 3 ng/mL [2]: 74.8 pmol/mL; Experiment 2; cyclic AMP produced; TSH (2) 3 ng/mL, run at the end of assay [2]: 61.2 pmol/mL; Mutated/Wild type (%), TSH 0.01 ng/mL [2]: 583%; Mutated/Wild type (%), TSH 0.03 ng/mL [2]: 369%; Mutated/Wild type (%), TSH 0.1 ng/mL [2]: 134%; Mutated/Wild type (%), TSH 0.3 ng/mL [2]: 103%; Mutated/Wild type (%), TSH 1 ng/mL [2]: 88%; Mutated/Wild type (%), TSH 3 ng/mL [2]: 80%; % inhibition of TSH stimulation, TSH (2) run at the end of assay, wild type TSHR [3]: 0%; Cyclic AMP produced (mean of duplicate), TSH 3 ng/mL [3]: 88 pmol/mL; Cyclic AMP produced (pmol/mL), TSH 3 ng/mL, wild type TSHR [3]: 101 pmol/mL; Cyclic AMP produced (pmol/mL), TSH (2) 3 ng/mL run at the end of assay, wild type TSHR [3]: 131 pmol/mL; Cyclic AMP produced, TSH 0.01 ng/mL, Experiment 1 [3]: 1.22 pmol/mL; Cyclic AMP produced, TSH 0.01 ng/mL, Experiment 2 [3]: 2.02 pmol/mL; Cyclic AMP produced, TSH 0.03 ng/mL, Experiment 1 [3]: 1.85 pmol/mL; Cyclic AMP produced, TSH 0.03 ng/mL, Experiment 2 [3]: 1.96 pmol/mL; Cyclic AMP produced, TSH 0.1 ng/mL, Experiment 1 [3]: 4.89 pmol/mL; Cyclic AMP produced, TSH 0.1 ng/mL, Experiment 2 [3]: 4.49 pmol/mL; Cyclic AMP produced, TSH 0.3 ng/mL, Experiment 1 [3]: 17.4 pmol/mL; Cyclic AMP produced, TSH 0.3 ng/mL, Experiment 2 [3]: 13.5 pmol/mL; Cyclic AMP produced, TSH 1 ng/mL, Experiment 1 [3]: 52.9 pmol/mL; Cyclic AMP produced, TSH 1 ng/mL, Experiment 2 [3]: 43.2 pmol/mL; Cyclic AMP produced; TSH 3 ng/mL; Experiment 1 [3]: 70.6 pmol/mL; Cyclic AMP produced; TSH 3 ng/mL; Experiment 2 [3]: 84.8 pmol/mL; % inhibition of TSH stimulation, TSH (2) run at the end of assay, mutated TSHR [4]: 22%; Cyclic AMP produced (pmol/mL), TSH 3 ng/mL, mutated TSHR [4]: 52.5 pmol/mL; Cyclic AMP produced (pmol/mL), TSH (2) 3 ng/mL run at the end of assay, mutated TSHR [4]: 41 pmol/mL; Mutated/wild type (%) of cyclic AMP produced; TSH 3 ng/mL [4]: 52%; Mutated/wild type (%) of cyclic AMP produced; TSH (2) 3 ng/mL, run at the end of assay [4]: 31.2%; Cyclic AMP produced (pmol/mL), 0.01 ng/mL TSH, Experiment 1 [5]: 4.95 pmol/mL; Cyclic AMP produced (pmol/mL), 0.01 ng/mL TSH, Experiment 2 [5]: 3.73 pmol/mL; Cyclic AMP produced (pmol/mL), 0.03 ng/mL TSH, Experiment 1 [5]: 6.94 pmol/mL; Cyclic AMP produced (pmol/mL), 0.03 ng/mL TSH, Experiment 2 [5]: 5.37 pmol/mL; Cyclic AMP produced (pmol/mL), 0.1 ng/mL TSH, Experiment 1 [5]: 13 pmol/mL; Cyclic AMP produced (pmol/mL), 0.1 ng/mL TSH, Experiment 2 [5]: 10.1 pmol/mL; Cyclic AMP produced (pmol/mL), 0.3 ng/mL TSH, Experiment 1 [5]: 35 pmol/mL; Cyclic AMP produced (pmol/mL), 0.3 ng/mL TSH, Experiment 2 [5]: 27.8 pmol/mL; Cyclic AMP produced (pmol/mL), 1 ng/mL TSH, Experiment 1 [5]: 57.2 pmol/mL; Cyclic AMP produced (pmol/mL), 1 ng/mL TSH, Experiment 2 [5]: 55.8 pmol/mL; Cyclic AMP produced (pmol/mL), 3 ng/mL TSH, Experiment 1 [5]: 69.2 pmol/mL; Cyclic AMP produced (pmol/mL), 3 ng/mL TSH, Experiment 2 [5]: 72.2 pmol/mL; Mutated/Wild type (%) of cyclic AMP produced, 0.01 ng/mL TSH, Experiment 1 [5]: 275%; Mutated/Wild type (%) of cyclic AMP produced, 0.01 ng/mL TSH, Experiment 2 [5]: 287%; Mutated/Wild type (%) of cyclic AMP produced, 0.03 ng/mL TSH, Experiment 1 [5]: 177%; Mutated/Wild type (%) of cyclic AMP produced, 0.03 ng/mL TSH, Experiment 2 [5]: 179%; Mutated/Wild type (%) of cyclic AMP produced, 0.1 ng/mL TSH, Experiment 1 [5]: 146%; Mutated/Wild type (%) of cyclic AMP produced, 0.1 ng/mL TSH, Experiment 2 [5]: 151%; Mutated/Wild type (%) of cyclic AMP produced, 0.3 ng/mL TSH, Experiment 1 [5]: 106%; Mutated/Wild type (%) of cyclic AMP produced, 0.3 ng/mL TSH, Experiment 2 [5]: 106%; Mutated/Wild type (%) of cyclic AMP produced, 1 ng/mL TSH, Experiment 1 [5]: 75%; Mutated/Wild type (%) of cyclic AMP produced, 1 ng/mL TSH, Experiment 2 [5]: 82%
